In PMC4313936, “N-Terminal and C-Terminal Domains of Calmodulin Mediate FADD and TRADD Interaction” (PLoS ONE, 2015):

Target: T1, His-CaM (native, Xenopus laevis) (Xenopus laevis, UniProt P0DP33 1-149)
T1 construct: calmodulin, Xenopus laevis, plasmid pET-15b-CaM [41]; also called native untreated CaM; recombinant His-CaM; source: E. coli BL21 (DE3), purified as previously described [8]
Experiment: pull-down; GST proteins (5 μg) bound to glutathione-sepharose beads incubated with soluble recombinant CaM proteins (His-CaM forms, no-tagged wild-type CaM, Met-to-Leu mutants); 10 mM potassium phosphate pH 7.0, 100 mM KCl, 1% Brij; 2 mM Ca2+ or EGTA in Fig. 2E; western blot with CaM antibody
Conditions: both partners purified

- binding result: binds
B1: GST-TRADD R235A (natural protein)
chain: MAAGQNGHEEWVGSAYLFVESSLDKVVLSDAYAHPQQKVAVYRALQAALAESGGSPDVLQMLKIHRSDPQLIVQLRFCGRQPCGRFLRAYREGALRAALQRSLAAALAQHSVPLQLELRAGAERLDALLADEERCLSCILAQQPDRLRDEELAELEDALRNLKCGSGARGGDGEVASAPLQPPVPSLSEVKPPPPPPPAQTFLFQGQPVVNRPLSLKDQQTFARSVGLKWRKVGASLQRGCRALRDPALDSLAYEYEREGLYEQAFQLLRRFVQAEGRRATLQRLVEALEENELTSLAEDLLGLTDPNGGLA
notes: TRADD, human, point mutant of GST-TRADD; also called R235A TRADD mutant; source: E. coli BL21 (DE3)
